For orientation: Kd means the constant that tells how readily two partners part at equilibrium. Low readings indicate tighter binding, high ones weaker binding. For orientation: koff means a measure of how fast the partners let go of each other. A higher koff goes with fast dissociation. What is called kon is the second-order rate constant of association. A lower kon goes with slower complex formation. A word on the EC50: it is the concentration giving half of the maximal effect. A lower EC50 goes with greater potency.

From patent US20260234247A1 (published 2026) come the findings set out here.

To fix the notation:
B1: LK-RB1-9.h2 (antibody, human IgG4, kappa, V domains shown)
VH: QVQLVQSGSELKKPGASVKVSCTASGYTFTTYGMSWVRQAPGQGLKWMGWINTYSGVPTYADDFKGRFVFSLDTSVSTAYLQISSLKAEDTAVYFCARRRRTYHGYLSFDYWGQGTTVTVSS
VL: DIQMTQSPSSLSASVGDRVTITCETSENIYGALNWYQQKPGKAPKLLIYGATNLAEGVPSRFSGSGSGTDYTFTISSLQPEDIATYYCQNVLNTPWTFGGGTKLEIKR
notes: Humanized form of LK-RB1-9
B2: LK-RB1-9.h1 (antibody, human IgG4, kappa, V domains shown)
VH: B1 VH with T23K, K46E, F95Y
VL: B1 VL with Y71F
notes: Humanized form of LK-RB1-9
B3: LK-RB1-9 (antibody, human IgG4 S228P, kappa, V domains shown)
VH: QIQLVQSGPELKKPGETVKISCTASGYTFTTYGMSWVKQAPGKGLKWMGWINTYSGVPTYADDFKGRFAFSLETSASTAYLEINNVKNEDTATYFCARRRRTYHGYLCFDYWGQGTTLTVSS
VL: DIQMTQSPVSLSASVGETVTITCETSENIYGALNWYQRKQGKSPQLLIYGATNLADGMSSRFSGSGSGRQYSLEISSLHPDDVASYYCQNVLNTPWTFGGGTKLEIKR
notes: Anti-LILRB1 antibody from mouse hybridoma; parental antibody of LK-RB1-9.h1 to h3
B4: LK-RB2-24 (antibody, human IgG4 S228P, kappa, V domains shown)
VH: QIQLVQSGPEVKKPGETVKISCKASGYTFTTYGMSWVKQAPGKGLKWMGWLNIYSGVPAYADDFKGRFAFSLESSASTAYLQINNLKNEDTATYFCARRENYDGYGMDYWGQGTSVTVSS
VL: DIVMTQSPATLSVTPGDRVSLSCRASQSISDYLHWYQQKSHESPRLLIKYASQSISGIPSRFSGSGSGSDFTLSINSVEPEDVGVYYCQNGHSFPYTFGGGTKLEIKR
B5: LK-RB2-15 (antibody, human IgG4 S228P, kappa, V domains shown)
VH: QIQLVQSGPELKKPGETVKISCKASGYTFTTYGMSWVKQAPGKGLKWMGWINVYSGVPTYADDFKGRFAFSLEISASTAYLQINNLKDEDTATYFCARRKDYSGHCFDYWGQGTTLTVSS
VL: DIVLTQSPASLAVSLGQRATFSCRASESVDTYGISFMHWYQQKPGQPPKLLIYRASNLESGIPARFSGSGSRTDFTLTINPVETDDVATYYCQQSKKEPYTFGGGTKLEIKR
B6: LK-RB2-41 (antibody, human IgG4 S228P, kappa, V domains shown)
VH: EVQLQLSGPELVKPGASVKMSCKASGYTFTDYNMHWVKQSHGKSLEWIGYINPNNGGTTYNQKFKGKATLTVNKSSSTAYMELRSLTSEDSAVYYCARAPYYGSSYLLAYWGQGTLVTVSA
VL: DIVMTQSHKFMSTSVGDRVSITCKASQDVSTAVAWYQQKPGQSPKLLIYSASYRYTGVPDRFTGSGSGTDFTFTISSVQAEDLAIYYCQQHYSIPWTFGGGTKLEIKR
B7: LK-RB2-42 (antibody, human IgG4 S228P, kappa, V domains shown)
VH: EFQLQQSGPELVKPGASVKISCKASGYSFTDYNMNWVKQSNGKSLDWIGIINPKYGTTAYNQKLRDKATLTVDQSSSTAYMQLNSLTSEDSAVYYCASLNWDEGFAYWGQGTLVTVSP
VL: DVLMTQTPLSLPVSLGDQASISCRSSQSIVHSNGNTYLEWYLQKPGQPPKLLIYKVSNRFSGVPERFSGSGSGTDFTLKINRVEAEDLGVYYCFQGSLVPPTFGGGTKLEIKR
B8: LK-RB2-29 (antibody, human IgG4 S228P, kappa, V domains shown)
VH: QVQLQQSGAELARPGASVKLSCKASGYTFTSYWMQWVKQRPGQGLEWIGAIYPGDGDTRYTQKFKGKATLTADKSSSTAYMQLSSLASEDSAVYYCARGYYGSSYADYFDYWGQGTTLTVSS
VL: DIQMTQSPASLSASVGETVTITCRASGNIHNYLAWYQQKQGKSPQLLVYNAKTLADGVPSRFSGSGSGTQYSLKINSLQPEDFGSYYCQHFWSTPPTFGGGTKLEIKR
B9: LK-RB2-31 (antibody, human IgG4 S228P, kappa, V domains shown)
VH: QVQLQQPGAELVKPGASMKLSCKASGYTFTTYYMYWVKQRPGLGLEWIGGINPSNGGTTFNEKFKNKATLTVDKSSSTAYMQLRSLTSEDSAVYYCTRWRFFDVWGAGTTVTVSS
VL: SIVMTQTPEFLLVSAGDRVTITCKASQSVNNDVAWFQQKPGQSPKLLIYYASNRYTGVPDRFTGSGYGTDFTFTISTVQAEDLAIYFCQQDYSSPPTFGGATKLEIKR
B10: LK-RB2-47 (antibody, human IgG4 S228P, kappa, V domains shown)
VH: QVQLKQSGPGLVQPSQSLSITCTVSGFSLISYGVHWVRQSPGKGLEWLGVIWSGGSTDYNAAFISRLSISKDNSKSQVFFKMNSLQADDTAIYYCARSFHYHGSTFDYWGQGTTLTVSS
VL: DIQMTQTTSSLSASLGDRVIISCRASQDINNYLNWYQQKPDGTVKLLIYFTSRLHSGVPSSFSGSGSGTDYSLTINNLEQEDIATYFCQQVNTLPYTFGGGTKLEIKR
B11: LK-RB2-32 (antibody, human IgG4 S228P, kappa, V domains shown)
VH: DVQLQESGPGLVKPSQSLSLTCSVTGYSITSGYYWNWIRQFPGNKLEWMGYISFDGSNHYNPSLRNRISITRDTFKNQFFLKLNSVTTEDTATFYCTRRDYNWFAYWGQGTLVTVSA
VL: DIVLTQSPVTLSVTPGDSVSLSCRASQNINKNLHWYQQRSHESPRLLIKYVSQSISGIPSRFSGSGSGTDFTLSINSVETEDFGMYFCQQSNSWPLTFGAGTKLELRR
B12: LK-RB2-30 (antibody, human IgG4 S228P, kappa, V domains shown)
VH: EVQLVESGGGLVQPGGSLKLSCAASGFTFNTDGMSWVRQTPDKRLELVAIINSNGGSTYYPDSVKGRFTISRDNAKNTLYLQMSSLKSEDTAMYYCAREGSYGSWFAYWGQGTLVTVSA
VL: DIQMTQSPASLSVSVGETVTITCRASENINNNLAWYHQKQGKSPQLLVYAATNLADGVPSRFSGSGSGTQYSLKINSLQSEDFGSYYCQHFWGTPFTFGGGTKLEIKR
B13: LK-RB2-27 (antibody, human IgG4 S228P, kappa, V domains shown)
VH: DVKLVESGGGLVKPGGSLKLSCAASGFTFSSYSMSWVRQTPEKRLEWVATISTGGSYTYYPDSVKGRFTISRDNAKNTLYLQMSSLKSEDTAMFYCTRGSMDYWGQGTSVTVSS
VL: DILMTQSPSSMSVSLGDTVSITCHASQDISSNIGWLQQKPGNSFKGLIYHGTNLEDGVPSRFSGSGSGADYSLTISSLESEDFADYYCVQYAQFPYTFGGGTKLEIKR
B14: LK-RB2-28 (antibody, human IgG4 S228P, kappa, V domains shown)
VH: B13 VH with V64M
VL: B13 VL with T22A
B15: LK-RB2-34 (antibody, human IgG4 S228P, kappa, V domains shown)
VH: B13 VH with L4V, G55S, P61S
VL: B13 VL with T52I
B16: LK-RB2-25 (antibody, human IgG4 S228P, kappa, V domains shown)
VH: QVQLKESGPGLVAPSQSLSITCTVSGFSLTSYGVHWVRQPPGKGLEWLGVIWAGGSTKYNSALMSRLSINKDNSKSQVFLKMNSLQTDDTAMYYCARDQMVRSAMDYWGQGTSVTVSS
VL: DIQMIQSPSSMFASLGDRVSLSCRASQGIRGNLDWYQQKPGGTIKLLIYSTSNLNSAVPSRFSGSGSGSDYSLTISNLESEDFADYYCLQRNASPYTFGGGTKLEIKR
B17: LK-RB2-26 (antibody, human IgG4 S228P, kappa, V domains shown)
VH: B16 VH with K58D, S61A, L63F, M64I, S68N, N70S, N73I, K75E, L80F, K81R
VL: B16 VL
B18: LK-RB2-44 (antibody, human IgG4 S228P, kappa, V domains shown)
VH: EVQLVESGGDLVKPGGSLKLSCAASGFTFSSYGMSWVRQTPDKRLEWVATISGGGTYTYYPDSVKGRFTISRDNAKNTLYLQMSSLKSEDTAMYYCASGAMDYWGQGTSVTVSS
VL: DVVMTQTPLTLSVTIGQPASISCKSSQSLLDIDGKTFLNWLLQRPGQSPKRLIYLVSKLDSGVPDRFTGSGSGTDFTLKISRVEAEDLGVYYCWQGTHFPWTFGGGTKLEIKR

Substitutions are numbered along the chain they refer to.

T5 sequence (Q8N423 22-460 limits assumed): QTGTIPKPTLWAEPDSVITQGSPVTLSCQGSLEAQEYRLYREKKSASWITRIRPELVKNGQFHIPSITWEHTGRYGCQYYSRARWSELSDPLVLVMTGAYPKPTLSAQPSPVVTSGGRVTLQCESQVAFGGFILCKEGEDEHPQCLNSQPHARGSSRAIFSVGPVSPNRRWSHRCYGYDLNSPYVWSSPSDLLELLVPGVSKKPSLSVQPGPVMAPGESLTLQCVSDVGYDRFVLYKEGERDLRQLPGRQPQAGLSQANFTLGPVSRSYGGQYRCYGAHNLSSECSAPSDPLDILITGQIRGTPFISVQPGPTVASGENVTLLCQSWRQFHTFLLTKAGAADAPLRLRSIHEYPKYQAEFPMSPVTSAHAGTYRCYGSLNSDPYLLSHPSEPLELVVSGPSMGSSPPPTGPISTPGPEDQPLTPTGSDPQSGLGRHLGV

The first assay deals with T1, human LILRB1-his (human, UniProt Q8NHL6 24-458, limits assumed).
T1 construct: Analyte of the Biacore run; not shown: His tag
T1 sequence (Q8NHL6 24-458 limits assumed): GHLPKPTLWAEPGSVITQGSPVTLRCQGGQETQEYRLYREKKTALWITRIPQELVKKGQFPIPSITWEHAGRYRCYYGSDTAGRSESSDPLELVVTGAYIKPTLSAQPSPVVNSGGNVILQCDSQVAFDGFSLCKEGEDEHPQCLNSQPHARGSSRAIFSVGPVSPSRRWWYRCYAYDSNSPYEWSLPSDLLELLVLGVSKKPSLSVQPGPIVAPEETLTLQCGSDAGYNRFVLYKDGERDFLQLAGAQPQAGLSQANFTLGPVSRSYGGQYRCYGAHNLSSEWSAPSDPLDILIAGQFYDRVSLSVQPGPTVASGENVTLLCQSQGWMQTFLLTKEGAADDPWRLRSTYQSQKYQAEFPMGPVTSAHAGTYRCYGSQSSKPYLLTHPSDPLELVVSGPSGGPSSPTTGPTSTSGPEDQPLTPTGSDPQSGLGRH
Nature of the assay: SPR (Biacore 8K), antibody captured via Fc, LILRB1-his as analyte, 1:1 model. In general terms: In SPR one partner is held on a chip, and binding of the other changes the refractive index at the surface.
For the molecule B1, binding was characterised by a dissociation constant (Kd) of 0.927 nM, the koff amounted to 0.000224 s⁻¹ and the kon came out at 241000 M⁻¹ s⁻¹.

For B2, the Kd stood at 0.825 nM, the off-rate (koff) is 0.000209 s⁻¹ and the kon was 253000 M⁻¹ s⁻¹.

Molecule B3 had a Kd of 0.836 nM, a koff of 0.000255 s⁻¹ and a kon of 305000 M⁻¹ s⁻¹.

The target of the next assay is T2, human LILRA2-his (human, UniProt Q8N149 24-449, limits assumed).
T2 construct: Analyte of the Biacore run; not shown: His tag
T2 sequence (Q8N149 24-449 limits assumed): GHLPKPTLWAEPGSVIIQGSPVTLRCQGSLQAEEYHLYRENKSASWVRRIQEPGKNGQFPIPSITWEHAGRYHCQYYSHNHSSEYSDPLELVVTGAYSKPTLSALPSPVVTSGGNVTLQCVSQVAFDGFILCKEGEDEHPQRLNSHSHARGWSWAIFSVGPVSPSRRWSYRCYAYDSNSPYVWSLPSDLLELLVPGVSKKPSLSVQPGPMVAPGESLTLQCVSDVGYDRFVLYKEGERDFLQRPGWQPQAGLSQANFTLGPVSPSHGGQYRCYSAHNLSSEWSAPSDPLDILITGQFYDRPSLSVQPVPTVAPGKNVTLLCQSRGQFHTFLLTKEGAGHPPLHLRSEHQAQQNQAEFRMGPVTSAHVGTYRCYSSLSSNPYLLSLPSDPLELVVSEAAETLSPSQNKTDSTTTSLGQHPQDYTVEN
As to the kind of experiment: SPR (Biacore 8K), antibody captured via Fc, LILRA2-his as analyte, 1:1 model.
In turn, B1 came in with a Kd of 6.97 nM, a koff of 0.00132 s⁻¹ and a kon of 189000 M⁻¹ s⁻¹.

In turn, B2 had a Kd of 10.4 nM, a koff of 0.00219 s⁻¹ and a kon of 210000 M⁻¹ s⁻¹.

Consider B3, for which binding was characterised by a dissociation constant (Kd) of 13.3 nM, the off-rate constant (koff) is 0.00286 s⁻¹ and the kon was 215000 M⁻¹ s⁻¹.

For a further assay, the target named is T3, human LILRB2 expressed on CHOK1 cells (CHOK1-hLILRB2) (human, UniProt Q8N423 22-597).
T3 construct: whole, on cells; also called CHOK1-LILRB2
T3 sequence (Q8N423 22-597): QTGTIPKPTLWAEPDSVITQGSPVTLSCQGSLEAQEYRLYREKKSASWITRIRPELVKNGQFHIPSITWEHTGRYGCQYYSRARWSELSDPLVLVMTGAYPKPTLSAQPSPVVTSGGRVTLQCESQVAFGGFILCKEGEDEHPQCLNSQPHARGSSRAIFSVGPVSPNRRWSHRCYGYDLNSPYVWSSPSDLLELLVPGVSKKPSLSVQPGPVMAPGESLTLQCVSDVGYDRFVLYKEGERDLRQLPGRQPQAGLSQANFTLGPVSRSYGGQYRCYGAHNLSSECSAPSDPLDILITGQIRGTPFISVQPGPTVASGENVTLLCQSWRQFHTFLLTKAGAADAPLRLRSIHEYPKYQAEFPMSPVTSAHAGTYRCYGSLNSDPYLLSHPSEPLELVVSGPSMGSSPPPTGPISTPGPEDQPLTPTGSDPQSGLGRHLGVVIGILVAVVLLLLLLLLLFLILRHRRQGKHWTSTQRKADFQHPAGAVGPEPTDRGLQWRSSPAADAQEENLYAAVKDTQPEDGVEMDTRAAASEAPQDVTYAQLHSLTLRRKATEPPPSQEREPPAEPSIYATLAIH
Nature of the assay: cell based RBA, flow cytometry: blocking of HLA-G binding to CHOK1-hLILRB2 cells. (In general: Flow cytometry measures light scatter and fluorescence of single cells or particles in a stream.)
As for B4, the EC50 came out at 0.0956 nM and the “Top Inhibition” value is 74.1%.

For the molecule B5, the EC50 was found to be 0.162 nM and the “Top Inhibition” value came out at 77.5%.

For the next assay, the target named is T4, human LILRB1 expressed on CHOK1 cells (CHOK1-hLILRB1) (human, UniProt Q8NHL6 24-650).
T4 construct: whole, on cells; also called CHOK1-LILRB1
T4 sequence (Q8NHL6 24-650): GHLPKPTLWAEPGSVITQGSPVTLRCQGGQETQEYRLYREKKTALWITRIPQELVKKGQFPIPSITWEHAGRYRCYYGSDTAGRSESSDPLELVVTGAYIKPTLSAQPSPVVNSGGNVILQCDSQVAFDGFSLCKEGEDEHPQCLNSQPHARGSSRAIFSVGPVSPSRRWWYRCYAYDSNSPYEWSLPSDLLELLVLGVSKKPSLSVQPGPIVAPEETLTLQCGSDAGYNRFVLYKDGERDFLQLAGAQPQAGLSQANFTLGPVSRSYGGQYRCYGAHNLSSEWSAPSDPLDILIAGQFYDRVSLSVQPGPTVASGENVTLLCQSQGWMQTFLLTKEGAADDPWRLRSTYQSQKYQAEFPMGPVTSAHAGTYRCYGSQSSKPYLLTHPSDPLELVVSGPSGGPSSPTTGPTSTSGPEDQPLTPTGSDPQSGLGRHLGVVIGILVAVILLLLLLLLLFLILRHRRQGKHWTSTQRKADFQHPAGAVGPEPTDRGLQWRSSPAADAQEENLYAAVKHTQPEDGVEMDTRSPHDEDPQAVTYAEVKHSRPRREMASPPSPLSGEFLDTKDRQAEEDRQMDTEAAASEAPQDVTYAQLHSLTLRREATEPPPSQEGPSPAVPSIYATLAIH
Nature of the assay: cell based RBA, flow cytometry: blocking of HLA-G binding to CHOK1-hLILRB1 cells.
For the molecule B4, the midpoint of the response, the EC50, lay at 1.7 nM and the “Top Inhibition” value was found to be 93.4%.

B5: the EC50 was determined as 4.18 nM and the “Top Inhibition” value worked out at 70.8%.

A further assay addresses T3, human LILRB2 expressed on CHOK1 cells …. Nature of the assay: FACS binding to CHOK1-hLILRB2 cells.
B4: the EC50 came out at 0.18 nM.

The molecule B5 had a concentration giving a half-maximal response (EC50) of 0.16 nM.

Another assay deals with cynomolgus LILRB2 (cynomolgus). As to the kind of experiment: Octet off-rate ranking. (Biolayer interferometry detects binding as a change in optical thickness at a sensor tip.)
Sequence of cynomolgus LILRB2 (cynomolgus) (chain, as listed by the source): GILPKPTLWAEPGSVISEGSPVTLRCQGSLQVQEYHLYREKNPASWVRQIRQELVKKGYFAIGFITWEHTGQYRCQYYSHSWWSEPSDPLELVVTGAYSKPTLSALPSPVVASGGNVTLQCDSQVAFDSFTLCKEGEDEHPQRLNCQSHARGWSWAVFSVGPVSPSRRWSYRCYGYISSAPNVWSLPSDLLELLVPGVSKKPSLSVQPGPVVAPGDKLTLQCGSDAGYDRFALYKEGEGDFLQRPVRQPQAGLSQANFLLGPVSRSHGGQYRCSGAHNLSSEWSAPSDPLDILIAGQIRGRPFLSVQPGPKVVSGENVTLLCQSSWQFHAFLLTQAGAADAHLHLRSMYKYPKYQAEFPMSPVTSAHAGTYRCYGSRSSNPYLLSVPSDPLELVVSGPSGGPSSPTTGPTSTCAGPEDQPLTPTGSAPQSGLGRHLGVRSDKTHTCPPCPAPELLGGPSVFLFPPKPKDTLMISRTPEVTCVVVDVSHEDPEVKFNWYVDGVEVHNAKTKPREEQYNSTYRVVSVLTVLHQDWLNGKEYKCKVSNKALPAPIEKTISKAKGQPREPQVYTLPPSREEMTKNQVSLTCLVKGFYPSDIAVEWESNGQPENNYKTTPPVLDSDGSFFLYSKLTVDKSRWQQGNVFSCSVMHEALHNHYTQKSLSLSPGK
Text: (§1) Binding affinity of anti-LILRB1 and anti-LILRB2 antibodies against human LILRB1, LILRB2, LILRA1, LILRA2 and cynomolgus LILRB2 was ranked by measuring dissociation rate constant (Kdis) using the Octet system.
As for B6, the koff was found to be 0.00119 s⁻¹.

B7 had a dissociation rate constant (koff) of 0.000147 s⁻¹.

B8 yielded a koff of 0.000215 s⁻¹.

In the case of B9, the koff is 0.000291 s⁻¹.

On to B10, for which the koff was 3.03e-05 s⁻¹.

In turn, B11 returned a koff of 0.00123 s⁻¹.

In turn, B12 registered a dissociation rate constant (koff) of 2.01e-05 s⁻¹.

In turn, B13 displayed a dissociation rate constant (koff) of 0.00109 s⁻¹.

Regarding B14, the koff is 0.00114 s⁻¹.

With B15, the koff turned out to be 0.000673 s⁻¹.

In turn, B16 registered a koff of 0.000424 s⁻¹.

B17 had a koff of 0.00184 s⁻¹.

B18 had a koff of 0.000346 s⁻¹.

The next assay concerns the target T5, human LILRB2 (human, UniProt Q8N423 22-460, limits assumed).
T5 construct: also called hLILRB2
As to the kind of experiment: Octet off-rate ranking.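 Note: antibody dissociation rate constants against cynomolgus LILRB2 plus human LILRB1, LILRB2, LILRA1 and LILRA2, measured on an Octet instrument to rank binding.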
Text: as §1
The molecule B6 had a koff of 6.33e-06 s⁻¹.

In the case of B11, the koff came out at 0.00291 s⁻¹.

The target of the next assay is T6, human LILRB1 (human, UniProt Q8NHL6 24-458, limits assumed).
T6 construct: also called hLILRB1
T6 sequence (Q8NHL6 24-458 limits assumed): as the sequence (Q8NHL6 24-458 limits assumed) above
As to the kind of experiment: Octet off-rate ranking.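 Note: antibody dissociation rate constants against cynomolgus LILRB2 plus human LILRB1, LILRB2, LILRA1 and LILRA2, measured on an Octet instrument to rank binding.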
Text: as §1
With B9, the koff was 0.00167 s⁻¹.

For the molecule B11, the koff came to 0.00186 s⁻¹.

Consider B16, for which the koff is 0.000609 s⁻¹.

A further assay addresses T4, human LILRB1 expressed on CHOK1 cells …. Nature of the assay: FACS binding to CHOK1-hLILRB1 cells.
The molecule B4 returned an EC50 of 0.848 nM.

Molecule B5 came in with an EC50 of 31.4 nM.
